The target in experiment [1] is T1, human FAPα-His tag (Sino biological) (human, UniProt Q12884 26-760).
T1 construct: Bought protein; also called human FAPα-His protein; not shown: His tag
T1 sequence (looked up): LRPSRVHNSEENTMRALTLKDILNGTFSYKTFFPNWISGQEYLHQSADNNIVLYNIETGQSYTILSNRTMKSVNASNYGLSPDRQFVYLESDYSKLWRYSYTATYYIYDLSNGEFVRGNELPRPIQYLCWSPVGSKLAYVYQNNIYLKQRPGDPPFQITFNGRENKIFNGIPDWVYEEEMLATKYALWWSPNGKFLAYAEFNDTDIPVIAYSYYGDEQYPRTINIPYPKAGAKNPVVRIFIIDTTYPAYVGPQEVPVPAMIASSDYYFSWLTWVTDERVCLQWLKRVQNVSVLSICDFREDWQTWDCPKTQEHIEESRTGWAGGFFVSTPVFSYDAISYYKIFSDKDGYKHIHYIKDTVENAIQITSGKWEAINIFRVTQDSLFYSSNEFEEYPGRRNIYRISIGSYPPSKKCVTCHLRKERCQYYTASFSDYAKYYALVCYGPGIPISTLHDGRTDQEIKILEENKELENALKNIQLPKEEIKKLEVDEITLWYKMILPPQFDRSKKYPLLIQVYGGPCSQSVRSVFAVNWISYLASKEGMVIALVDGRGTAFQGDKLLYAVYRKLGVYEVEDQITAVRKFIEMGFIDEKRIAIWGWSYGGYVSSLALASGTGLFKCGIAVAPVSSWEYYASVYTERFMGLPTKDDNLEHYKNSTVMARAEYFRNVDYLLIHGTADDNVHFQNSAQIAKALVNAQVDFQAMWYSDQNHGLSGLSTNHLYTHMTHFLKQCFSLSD
The experiment is described as follows: competitive ELISA on coated human FAPα; competitor (detected): FAP-I30-Bio. The protocol: (§1) Briefly, microtiter plates were coated with human FAPα proteins at 0.5 μg/ml in PBS, 100 μl/well at 4° C. overnight, then blocked with 150 μl/well of 1% BSA. Serial dilutions of chimeric antibodies as well as biotin-conjugated reference mAb were added to each well and incubated for 1 hour at RT. The plates were washed with PBS/Tween and then incubate with streptavidin-HRP for 15 mins at RT. After washing, the plates were developed with TMB substrate and analyzed by spectrophotometer at OD 450 nm. According to the competition ability to reference mAbs (Benchmark, or “BMK”), all tested FAPα mAbs binds to the similar epitope as shown in Table 5.
On the technique in general: In an ELISA, binding on a coated surface is turned into a signal by an enzyme label.

The target of experiment [2] is T1, human FAPα-His tag (Sino biological). Briefly: competitive ELISA on coated human FAPα; competitor (detected): FAP-G52-Bio. The protocol:
as §1

For experiment [3] the target is unchanged. Briefly: ELISA, coated human FAPα-His. The protocol:
Briefly, microtiter plates were coated with human FAPα-His protein at 0.5 ug/ml in PBS, 100 μl/well at 4° C. overnight, then blocked with 150 μl/well of 1% BSA. Three-fold dilutions of tested antibodies starting from 1 μg/ml were added to each well and incubated for 1 hour at 37° C. The plates were washed with PBS/Tween and then incubated with Anti-Human IgG (H&L) (GOAT) Antibody Peroxidase Conjugated for 30 mins at 37° C. After washing, the plates were developed with TMB substrate and analyzed by spectrophotometer at OD 450 nm. […] FAP-4B9 clone from Roche was served as positive control which labeled as FAPα-BMK.

For experiment [4] the target is unchanged. Briefly: competitive ELISA on coated human FAPα; competitor (detected): FAP-J40-Bio. The protocol: as §1
The target in experiment [5] is T2, human FAPα on CHO-K1-hFAPα cells (human, UniProt Q12884 1-760).
T2 construct: whole, on cells; also called cell-surface FAPα
T2 sequence (looked up): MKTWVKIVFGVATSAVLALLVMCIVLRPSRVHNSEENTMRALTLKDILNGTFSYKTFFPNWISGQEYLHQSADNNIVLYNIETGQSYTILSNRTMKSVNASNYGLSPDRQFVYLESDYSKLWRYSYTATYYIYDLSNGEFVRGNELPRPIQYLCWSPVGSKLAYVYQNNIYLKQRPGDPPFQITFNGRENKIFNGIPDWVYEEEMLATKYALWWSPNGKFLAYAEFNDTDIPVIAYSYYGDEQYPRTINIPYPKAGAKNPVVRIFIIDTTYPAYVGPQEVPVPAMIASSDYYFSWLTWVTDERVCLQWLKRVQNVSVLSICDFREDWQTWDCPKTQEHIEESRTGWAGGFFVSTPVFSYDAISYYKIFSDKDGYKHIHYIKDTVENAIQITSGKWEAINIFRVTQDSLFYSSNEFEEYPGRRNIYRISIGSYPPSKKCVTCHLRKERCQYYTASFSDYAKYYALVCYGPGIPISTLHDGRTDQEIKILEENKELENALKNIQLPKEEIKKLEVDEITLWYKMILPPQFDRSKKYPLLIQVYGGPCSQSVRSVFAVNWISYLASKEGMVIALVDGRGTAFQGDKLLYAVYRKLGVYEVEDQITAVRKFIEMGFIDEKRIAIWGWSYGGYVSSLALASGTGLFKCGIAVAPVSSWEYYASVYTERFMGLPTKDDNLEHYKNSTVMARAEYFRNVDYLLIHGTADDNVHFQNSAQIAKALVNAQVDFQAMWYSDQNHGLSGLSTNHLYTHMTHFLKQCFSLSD
The experiment is described as follows: flow cytometry on CHO-K1-hFAPα cells (MFI of PE). Also noted: unit not given beside the values. Here is the method: To evaluate the cell-based binding property to human FAPα, the tested antibodies were analyzed for their binding to CHO-K1-hFAPα by FACS. A total number of 1×10⁵ CHO-K1-hFAPα cells in each well were incubated with 4-fold serial diluted antibodies starting from 3 μg/ml for 30 minutes at 4° C. in FACS buffer. After wash by FACS buffer, PE conjugated-anti-human IgG antibody was added to each well and incubated at 4° C. for 30 minutes. After wash, MFI of PE was evaluated by MACSQuant Analyzer 16.

For experiment [6], the target named is T1, human FAPα-His tag (Sino biological). The experiment is described as follows: SPR (Biacore T200), mAb captured on Protein A chip, human FAPα-His as analyte. The protocol:
The binding of the tested antibodies to recombinant FAPα protein (human FAPα-his tag) was tested with Biacore using a capture method. The mAbs were captured using Protein A chip. A serial dilution of human FAPα-his tag protein was injected over captured antibody for 3 mins at a flow rate of 30 μl/min. The antigen was allowed to dissociate for 800s. All the experiments were carried out on a Biacore T200. Data analysis was carried out using the Biacore T200 evaluation software.
A general note: Surface plasmon resonance follows binding to a sensor surface in real time, without labels.

This is an account of results in patent US20250297032A1 (CONCEPT TO MEDICINE BIOTECH, published 2025).

B1: G14 (antibody, V domains shown)
VH: QVQLLESGGGVVQPGRSLRLSCAASGFTFSSYAMHWVRQAPGKGLEWVAFISHDGNRNSYADSVRGRFTISRDNSKNTLYLQMNSLRAEDTAVYYCARDLGYYNGFSYWGQGTLVTVSA
VL: DIVMTQSPSSVSASVGDRVTITCRASQGISSWLAWYQQKPGKAPKLLIYAASSLQSGVPSRFSGSGSGTDFTLTISSLQPEDFATYYCQQANSFPPTFGPGTKVDIK
notes: Full human antibody from a Fab phage library; Tested as a mAb (detected with anti-human IgG, captured on Protein A); also called FAP-G14; FAP-G14-Bio (biotin-conjugated form)
A word on the EC50: it is the concentration that produces a half-maximal response. Usually Kd stands for a measure of binding affinity in units of concentration. By koff is commonly meant a measure of how fast the partners let go of each other. Usually kon stands for a measure of how fast the partners come together. On to B1, for which the “OD 450 nm” value in experiment [1] was 0.241 OD 450 nm. Moreover, the “OD 450 nm” value in experiment [2] amounted to 0.195 OD 450 nm. Also, the midpoint of the response in experiment [3], the EC50, lay at 4.64 ng/mL. Further, the “OD 450 nm” value in experiment [4] came out at 0.293 OD 450 nm. For the same molecule, in experiment [5], the Cmax is 515. In experiment [6], this molecule displayed a Kd of 0.522 nM, a koff of 6.24e-05 s⁻¹ and a kon of 120000 M⁻¹ s⁻¹.

B2: I37 (antibody, V domains shown)
VH: QLQLVESGGGLVQPGGSLRLSCAASGFTFSSYAMSWVRQAPGKGLEWVSAISGSGGSTYYADSVKGRFTISRDNSKNTLYLQMNSLRAEDTAVYYCARDKPWGGSFDYWGQGTLVTVSA
VL: DIQLTQSPSSLSASVGDRVTITCRASQGISSWLAWYQQKPGKAPKLLIYAASSLQSGVPSRFSGSGSGTDFTLTISSLQPEDFATYYCQQANSFPVTFGPGTKVDIK
notes: Tested as a mAb; also called FAP-I37
Take B2: the “OD 450 nm” value in experiment [1] turned out to be 0.239 OD 450 nm; in experiment [2], 0.18 OD 450 nm; in experiment [4], 0.314 OD 450 nm. A half-maximal response in experiment [3] (EC50) required 5.4 ng/mL. In experiment [5], the Cmax came to 465. Also, the affinity in experiment [6], expressed as Kd, was 0.855 nM. The same molecule yielded a koff in experiment [6] of 0.000154 s⁻¹. In experiment [6], this molecule yielded a kon of 180000 M⁻¹ s⁻¹.

B3: J40 (antibody, V domains shown)
VH: EVQLLESGGGLVQPGGSLRLSCAASGFTFSSYAMSWVRQAPGKGLEWVSAISGSGGSTYYADSVKGRFTISRDNSKNTLYLQMNSLRTDDTAVYYCARDLTTSTGWESWGQGTLVTVSA
VL: NIQMTQSPSSVSASVGDRVTITCRASQGISSWLAWYQQKPGKAPKLLIYAASSLQSGVPSRFSGSGSGTDFTLTISSLQPEDFATYYCQQANSFPPTFGQGTKLEIK
notes: Tested as a mAb; also called FAP-J40; FAP-J40-Bio (biotin-conjugated form)
Turning to B3, the “OD 450 nm” value in experiment [1] stood at 0.218 OD 450 nm. Moreover, the “OD 450 nm” value in experiment [2] stood at 0.206 OD 450 nm. Also, the EC50 in experiment [3] amounted to 3.87 ng/mL. In addition, the “OD 450 nm” value in experiment [4] worked out at 0.261 OD 450 nm. In experiment [5], this molecule displayed a Cmax of 381. In experiment [6], the Kd is 1.01 nM, the koff was 7.31e-05 s⁻¹ and the kon was found to be 72200 M⁻¹ s⁻¹.

B4: I30 (antibody, V domains shown)
VH: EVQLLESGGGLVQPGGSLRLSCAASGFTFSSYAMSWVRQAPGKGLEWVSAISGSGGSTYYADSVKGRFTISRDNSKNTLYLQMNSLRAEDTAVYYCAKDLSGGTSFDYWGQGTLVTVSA
VL: AIRLTQSPSSVSASVGDRVTITCRASQGISSWLAWYQQKPGKAPKLLIYAASSLQSGVPSRFSGSGSGTDFTLTISSLQPEDFATYYCQQANSFPPTFGGGTKVEIK
notes: Tested as a mAb; also called 130; FAP-I30
In the case of B4, the “OD 450 nm” value in experiment [1] came out at 0.143 OD 450 nm. Also, the “OD 450 nm” value in experiment [2] is 0.146 OD 450 nm. The midpoint of the response in experiment [3], the EC50, lay at 3.42 ng/mL. The “OD 450 nm” value in experiment [4] is 0.16 OD 450 nm. The molecule further showed a Cmax in experiment [5] of 455. Besides, in experiment [6], the equilibrium dissociation constant (Kd) was found to be 0.454 nM, the koff worked out at 6.2e-05 s⁻¹ and the kon amounted to 137000 M⁻¹ s⁻¹.
